Measurements taken from article PMC5131575 (Biomaterials, 2016).

Target: Clathrin triskelions (bovine (purified from bovine brain), UniProt P49951 1-1675)
Assay: SPR

Sequence of Clathrin triskelions (P49951 whole entry): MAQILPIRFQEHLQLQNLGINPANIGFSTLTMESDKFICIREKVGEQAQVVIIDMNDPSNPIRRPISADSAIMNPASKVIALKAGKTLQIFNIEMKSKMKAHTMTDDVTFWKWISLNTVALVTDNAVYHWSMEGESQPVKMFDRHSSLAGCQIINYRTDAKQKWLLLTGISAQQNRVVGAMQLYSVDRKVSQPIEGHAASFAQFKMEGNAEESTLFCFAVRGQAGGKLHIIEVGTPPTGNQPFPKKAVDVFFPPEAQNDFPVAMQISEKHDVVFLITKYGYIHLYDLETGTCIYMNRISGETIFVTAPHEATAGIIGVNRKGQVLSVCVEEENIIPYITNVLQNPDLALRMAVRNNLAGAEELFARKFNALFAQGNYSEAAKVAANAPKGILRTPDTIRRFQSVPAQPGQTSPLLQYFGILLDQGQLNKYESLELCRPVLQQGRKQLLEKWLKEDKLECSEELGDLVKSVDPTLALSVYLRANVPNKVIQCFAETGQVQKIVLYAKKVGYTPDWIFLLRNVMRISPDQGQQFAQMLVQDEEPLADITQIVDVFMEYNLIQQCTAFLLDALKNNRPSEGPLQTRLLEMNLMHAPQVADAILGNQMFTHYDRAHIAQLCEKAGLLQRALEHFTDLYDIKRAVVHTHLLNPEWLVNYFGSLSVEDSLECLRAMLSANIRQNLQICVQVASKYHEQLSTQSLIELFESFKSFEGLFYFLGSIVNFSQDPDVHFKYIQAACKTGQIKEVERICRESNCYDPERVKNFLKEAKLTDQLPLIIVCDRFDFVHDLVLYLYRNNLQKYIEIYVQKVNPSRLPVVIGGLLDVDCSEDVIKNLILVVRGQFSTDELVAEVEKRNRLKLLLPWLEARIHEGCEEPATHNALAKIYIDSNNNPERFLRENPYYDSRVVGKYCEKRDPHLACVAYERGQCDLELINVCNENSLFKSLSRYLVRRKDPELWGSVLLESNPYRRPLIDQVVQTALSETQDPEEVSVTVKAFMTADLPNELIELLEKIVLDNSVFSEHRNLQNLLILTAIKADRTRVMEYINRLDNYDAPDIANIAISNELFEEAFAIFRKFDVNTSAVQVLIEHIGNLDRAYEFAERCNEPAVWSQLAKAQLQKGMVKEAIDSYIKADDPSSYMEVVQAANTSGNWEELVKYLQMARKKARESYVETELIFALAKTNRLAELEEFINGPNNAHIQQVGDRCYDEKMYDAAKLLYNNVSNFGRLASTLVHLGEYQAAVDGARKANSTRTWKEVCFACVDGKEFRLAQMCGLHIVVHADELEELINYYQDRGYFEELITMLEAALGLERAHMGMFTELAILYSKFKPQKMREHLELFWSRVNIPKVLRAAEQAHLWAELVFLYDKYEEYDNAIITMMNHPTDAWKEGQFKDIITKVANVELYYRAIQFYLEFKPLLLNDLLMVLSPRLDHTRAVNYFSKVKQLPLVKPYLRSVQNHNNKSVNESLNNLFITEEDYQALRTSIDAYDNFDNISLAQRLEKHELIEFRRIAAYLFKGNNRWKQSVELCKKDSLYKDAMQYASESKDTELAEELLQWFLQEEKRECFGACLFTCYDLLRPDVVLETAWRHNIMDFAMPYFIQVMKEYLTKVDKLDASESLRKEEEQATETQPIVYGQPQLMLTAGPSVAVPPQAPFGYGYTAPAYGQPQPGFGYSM

PWDLW [GFP-Wbox]
Kd: 3.9 µM
